According to PMC7005744, “Cis- and trans-regulations of pre-mRNA splicing by RNA editing enzymes influence cancer development”:

What was measured:
[1] = target: ADAR2 (UniProt P78563 1-741); experiment: EMSA; dose-dependent shift; REMSA/UV: 0.5 pmol 32P probe, 1x REMSA binding buffer (Thermo), 0.1 ug/ul yeast tRNA, room temperature 30 min, 6% native PAGE; pull-down: 250 mM NaCl, 10 mM MgCl2, 50 mM Hepes pH 7.4, 0.5% Igepal CA-630, tRNA, 4 C or RT 30 min; settings: protein: recombinant; tags: FLAG; chain copies: 2; label: 5' 32P; hairpin
[2] = target: T1, ADAR1 (UniProt P55265 296-1226); experiment: as above; settings: protein: recombinant; tags: FLAG; chain copies: 2; label: 5' 32P; hairpin
T1 sequence: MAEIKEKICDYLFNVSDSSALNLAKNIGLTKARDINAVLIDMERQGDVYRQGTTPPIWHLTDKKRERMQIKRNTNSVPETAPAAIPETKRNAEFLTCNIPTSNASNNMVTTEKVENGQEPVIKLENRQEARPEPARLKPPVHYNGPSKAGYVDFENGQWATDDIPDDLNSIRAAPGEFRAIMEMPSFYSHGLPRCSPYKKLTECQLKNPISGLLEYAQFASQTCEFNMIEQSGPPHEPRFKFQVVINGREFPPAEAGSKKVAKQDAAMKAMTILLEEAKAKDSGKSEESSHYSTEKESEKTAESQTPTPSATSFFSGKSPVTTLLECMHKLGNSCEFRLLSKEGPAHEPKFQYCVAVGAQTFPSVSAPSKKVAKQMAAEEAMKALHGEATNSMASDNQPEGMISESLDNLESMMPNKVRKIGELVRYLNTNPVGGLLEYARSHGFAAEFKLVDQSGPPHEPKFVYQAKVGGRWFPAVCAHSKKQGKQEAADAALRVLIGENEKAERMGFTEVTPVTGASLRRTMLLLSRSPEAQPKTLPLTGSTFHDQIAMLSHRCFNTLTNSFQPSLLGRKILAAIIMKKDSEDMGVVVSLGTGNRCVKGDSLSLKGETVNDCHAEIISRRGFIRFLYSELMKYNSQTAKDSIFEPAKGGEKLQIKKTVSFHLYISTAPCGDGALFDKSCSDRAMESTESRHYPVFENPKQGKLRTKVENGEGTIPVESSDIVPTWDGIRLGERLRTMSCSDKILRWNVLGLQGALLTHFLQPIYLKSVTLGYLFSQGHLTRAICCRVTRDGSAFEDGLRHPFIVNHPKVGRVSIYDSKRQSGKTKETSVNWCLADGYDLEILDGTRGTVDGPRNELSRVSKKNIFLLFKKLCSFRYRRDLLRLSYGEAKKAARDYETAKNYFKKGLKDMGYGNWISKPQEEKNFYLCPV

GGUAGAAAAGAAAAAUGACACUCGAGUGUUUUUUUCUCUUCUACUU (structured_RNA) [CCDC15 In8-9 WT]: binds [1]; binds [2].
